Measurements as given in US20210122788A1.
pKd: −log10 of the molar value.

How the values were obtained:
human BTLA Fc (human) [1] = target: human BTLA Fc (human) (UniProt Q7Z6A9); assay: SPR, BTLA Fc immobilised on CM5, monovalent (Langmuir) fit
human BTLA Fc (human) [2] = target: human BTLA Fc (human) (UniProt Q7Z6A9); assay: SPR, BTLA Fc immobilised on CM5, bivalent fit

Substance rhesus CMV UL144 Fc (Fc fusion) has a pKd (human BTLA Fc (human) [1]) of 5.89, a koff (human BTLA Fc (human) [1]) of 0.0295 s⁻¹ and a kon (human BTLA Fc (human) [1]) of 22800 M⁻¹ s⁻¹. It also gave a ka1 (bivalent analysis) (human BTLA Fc (human) [2]) of 16600 M⁻¹ s⁻¹, a kd1 (bivalent analysis) (human BTLA Fc (human) [2]) of 0.031 s⁻¹ and a kd2 (bivalent analysis) (human BTLA Fc (human) [2]) of 0.129 s⁻¹.
